This is an account of results in patent US20230227568A1 (Pieris, published 2023).

Broadly, the EC50 is the concentration giving half of the maximal effect. By koff is commonly meant the first-order rate constant of dissociation. The kon is the rate constant with which the complex forms.

The target of test [1] is T1, human 4-1BB on cells (human, UniProt Q07011 24-255).
T1 construct: whole, on cells; Stably transfected CHO cells (flow cytometry) and bought Jurkat reporter cells (bioassay); also called Flp-In-CHO::hu4-1BB; human 4-1BB-expressing CHO cells
T1 sequence (Q07011 24-255): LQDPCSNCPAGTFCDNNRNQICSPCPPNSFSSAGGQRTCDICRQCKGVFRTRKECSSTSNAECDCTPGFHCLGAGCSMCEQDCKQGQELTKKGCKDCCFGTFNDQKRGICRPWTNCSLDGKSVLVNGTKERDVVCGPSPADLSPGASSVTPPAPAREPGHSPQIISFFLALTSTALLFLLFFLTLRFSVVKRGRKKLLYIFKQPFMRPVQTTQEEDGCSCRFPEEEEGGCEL
Put plainly: flow cytometry, Flp-In-CHO::hu4-1BB cells. The method, then:
(§1) CHO cells were stably transfected with human 4-1BB, cynomolgus 4-1BB, or a mock control using the Flp-In system (Life Technologies) according to the manufacturer's instructions. Transfected CHO cells were maintained in Ham's F12 medium (Life Technologies) supplemented with 10% Fetal Calf Serum (Biochrom) and 500 μg/ml Hygromycin B (Roth). Cells were cultured in cell culture flasks according to manufacturer's instruction (37° C., 5% CO₂ atmosphere).
(§2) 5×10⁴ cells per well were incubated for 1 h in ice-cold PBS containing 5% fetal calf serum (PBS-FCS). A dilution series of the tested multimeric proteins (SEQ ID NOs: 38-44 and 46-55), the 4-1BB-targeting lipocalin mutein as included in the multimeric proteins (SEQ ID NO: 64) or the GPC3-targeting lipocalin SEQ ID NO: 90 were added to the cells and incubated for 1 h on ice. Cells were washed twice with PBS and then incubated with a rabbit anti-NGAL or a goat anti-human IgG labeled with fluorescent dye Alexa 488 for 30 min on ice. Human IgG4 isotype (SEQ ID NOs: 29 and 30) and lipocalin mutein SEQ ID NO: 8 were tested as a negative control. Cells were subsequently washed and analyzed using iQue Flow cytometer (Intellicyte Screener). Mean geometric fluorescent signals were plotted and fitted with Graphpad software using nonlinear regression (shared bottom, four parameters, variable slope).

Test [2] concerns the target T2, cynomolgus 4-1BB on CHO cells (cynomolgus, UniProt A9YYE7 24-254).
T2 construct: also called Flp-In-CHO::cyno4-1BB; cynomolgus 4-1BB-expressing CHO cells
Nature of the test: flow cytometry, Flp-In-CHO::cyno4-1BB cells. The method, then:
as §1, §2
For orientation: A flow cytometer gives signals particle by particle.

For test [3], the target named is T3, recombinant hu4-1BB-His (human 4-1BB with a C-terminal polyhistidine tag, R&D Systems) (human, UniProt Q07011 24-186).
T3 construct: Bought; not shown: C-terminal polyhistidine tag
Put plainly: ELISA, hu4-1BB-His coated, detection anti-NGAL-HRP. The method, then:
Recombinant hu4-1BB-His (human 4-1BB with a C-terminal polyhistidine tag, R&D Systems) at the concentration of 1 μg/mL in PBS was coated overnight on microtiter plates at 4° C. After washing with PBS-0.05% T (PBS supplemented with 0.05% (v/v) Tween 20), the plates were blocked with 2% BSA (w/v) in PBS-0.1% T (PBS supplemented with 0.1% (v/v) Tween 20) for 1 h at room temperature. After washing with 100 μL PBS-0.05% T five times, exemplary multimeric proteins (SEQ ID NOs: 38-44 and 46-53) or 4-1BB-specific lipocalin mutein as included in the multimeric protein (SEQ ID NO: 64) at different concentrations, ranging from 100 to 0.002 nM, were added to the wells and incubated for 1 h at room temperature, followed by another wash step. Bound molecules under study were detected by incubation with 1:1000 diluted anti-NGAL-HRP in PBS-0.1% T-2% BSA. After an additional wash step, fluorogenic HRP substrate (QuantaBlu, Thermo) was added to each well and the fluorescence intensity was detected using a fluorescence microplate reader.
The results of exemplary experiments are depicted in FIG. 2, together with the fit curves resulting from a 1:1 binding sigmoidal fit, where the EC₅₀ value and the maximum signal were free parameters, and the slope was fixed to one. The observed EC₅₀ values toward the hu4-1BB of all tested multimeric proteins were in the sub nanomolar range.
(An ELISA detects its analyte on a solid surface through an enzyme-linked reagent.)

Test [4] addresses T4, hu4-1BB-Fc (R&D Systems) (human, UniProt Q07011 24-186).
T4 construct: Bought; also called human 4-1BB; not shown: human IgG Fc of the bought fusion
Nature of the test: SPR (Biacore 8K), hu4-1BB-Fc captured by anti-human IgG Fc; apparent value, 1:1 fit. Here is the method:
The anti-human IgG Fc antibody (GE Healthcare) was immobilized on a CM5 sensor chip using standard amine chemistry: the carboxyl groups on the chip were activated using 1-ethyl-3-(3-dimethylaminopropyl)-carbodiimide (EDC) and N-hydroxysuccinimide (NHS). Subsequently, anti-human IgG Fc antibody solution (GE Healthcare) at a concentration of 25 μg/mL in 10 mM sodium acetate (pH 5.0) was applied at a flow rate of 5 μL/min until an immobilization level of 4000-10000 resonance units (RU) was achieved. Residual non-reacted NHS-esters were blocked by passing a solution of 1 M ethanolamine across the surface. The reference channel was treated in an analogous manner. Subsequently, hu4-1BB-Fc (R&D Systems) at 0.3 μg/mL was captured by the anti-human IgG-Fc antibody at the chip surface for 180 s at a flow rate of 10 μL/min.
The binding assay was carried out with a contact time of 180 s, a dissociation time of 1200 s or 3000 s and a flow rate of 30 μL/min. All measurements were performed at 25° C. Lipocalin mutein SEQ ID NO: 64 as included in the multimeric proteins was also tested as […]. […] Prior to the protein measurements, three startup cycles were performed for conditioning purposes. Data were evaluated with Biacore Evaluation software. Double referencing was used and the 1:1 binding model was used to fit the raw data.
(In general: In SPR one partner is held on a chip, and binding of the other changes the refractive index at the surface.)

The target in test [5] is T1, human 4-1BB on cells. Nature of the test: cell-based or functional assay.

T2 sequence (A9YYE7 entry or part of it limits assumed): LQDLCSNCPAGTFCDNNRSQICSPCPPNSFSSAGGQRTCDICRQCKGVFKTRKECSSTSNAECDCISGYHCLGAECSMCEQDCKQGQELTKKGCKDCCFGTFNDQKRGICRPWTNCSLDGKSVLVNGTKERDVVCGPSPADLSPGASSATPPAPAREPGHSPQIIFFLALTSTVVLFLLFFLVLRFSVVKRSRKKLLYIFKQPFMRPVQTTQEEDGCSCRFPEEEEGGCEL

B1: multimeric protein SEQ ID NO: 39 (designed binder)
chain: QDSTSDLIPAPPLSKVPLQQNFQDNQFHGKWYVVGQAGNIRLREDKDPIKMMATIYELKEDKSYDVTMVKFDDKKCMYDIWTFVPGSQPGEFTLGKIKSFPGHTSSLVRVVSTNYNQHAMVFFKFVFQNREEFYITLYGRTKELTSELKENFIRFSKSLGLPENHIVFPVPIDQCIDGGGGGSGVRLWATRQAMLGQVHEVPEGWLIFVAEQEELYVRVQNGFRKVQLEARTPLGGSGGAPEQKLISEEDLGSHHHHHHHHHH
Turning to B1, the EC50 in test [1] was determined as 5870 pM; in test [2], 3680 pM; in test [3], 240 pM. For the same molecule, in test [4], the Kd was 380 pM. Besides, the dissociation rate constant (koff) in test [4] came to 2.63e-05 s⁻¹. Further, in test [4], the on-rate (kon) is 68800 M⁻¹ s⁻¹.

B2: multimeric protein SEQ ID NO: 47 (designed binder)
chain: QDSTSDLIPAPPLSKVPLQQNFQDNQFHGKWYVVGQAGNIRLREDKDPIKMMATIYELKEDKSYDVTMVKFDDKKCMYDIWTFVPGSQPGEFTLGKIKSFPGHTSSLVRVVSTNYNQHAMVFFKFVFQNREEFYITLYGRTKELTSELKENFIRFSKSLGLPENHIVFPVPIDQCIDGGGGGSGGGGSGGGGSKPLDGEYFTLQIRGRERFEMFRELNEALELKDAQAGKEPGGSGGAPEQKLISEEDLGSHHHHHHHHHH
Molecule B2 displayed an EC50 in test [1] of 3810 pM. The same molecule displayed an EC50 in test [2] of 3810 pM. Besides, the concentration giving a half-maximal response (EC50) in test [3] is 100 pM. In test [4], the Kd was found to be 660 pM, the koff stood at 6.52e-05 s⁻¹ and the kon stood at 98700 M⁻¹ s⁻¹.

B3: multimeric protein SEQ ID NO: 43 (designed binder)
chain: GVRLWATRQAMLGQVHEVPEGWLIFVAEQEELYVRVQNGFRKVQLEARTPLGGGGSGGGGSGGGGSQDSTSDLIPAPPLSKVPLQQNFQDNQFHGKWYVVGQAGNIRLREDKDPIKMMATIYELKEDKSYDVTMVKFDDKKCMYDIWTFVPGSQPGEFTLGKIKSFPGHTSSLVRVVSTNYNQHAMVFFKFVFQNREEFYITLYGRTKELTSELKENFIRFSKSLGLPENHIVFPVPIDQCIDGGGSGGAPEQKLISEEDLGSHHHHHHHHHH
With B3, the EC50 in test [3] turned out to be 160 pM. Further, in test [4], the Kd was 390 pM, the koff was found to be 4.42e-05 s⁻¹ and the kon is 114000 M⁻¹ s⁻¹.

B4: multimeric protein SEQ ID NO: 44 (designed binder)
chain: GVRLWATRQAMLGQVHEVPEGWLIFVAEQEELYVRVQNGFRKVQLEARTPLGGGGSQDSTSDLIPAPPLSKVPLQQNFQDNQFHGKWYVVGQAGNIRLREDKDPIKMMATIYELKEDKSYDVTMVKFDDKKCMYDIWTFVPGSQPGEFTLGKIKSFPGHTSSLVRVVSTNYNQHAMVFFKFVFQNREEFYITLYGRTKELTSELKENFIRFSKSLGLPENHIVFPVPIDQCIDGGGSGGAPEQKLISEEDLGSHHHHHHHHHH
B4: the figures for the concentration giving a half-maximal response (EC50) in test [1], in test [2] and in test [3] were 6640 pM, 5030 pM and 220 pM, respectively. Besides, in test [4], the Kd was 240 pM. In test [4], the koff amounted to 2.07e-05 s⁻¹. The kon in test [4] was 87500 M⁻¹ s⁻¹.

B5: multimeric protein SEQ ID NO: 48 (designed binder)
chain: QDSTSDLIPAPPLSKVPLQQNFQDNQFHGKWYVVGQAGNIRLREDKDPIKMMATIYELKEDKSYDVTMVKFDDKKCMYDIWTFVPGSQPGEFTLGKIKSFPGHTSSLVRVVSTNYNQHAMVFFKFVFQNREEFYITLYGRTKELTSELKENFIRFSKSLGLPENHIVFPVPIDQCIDGGGGGSGGGGSGGGGSGVRLWATRQAMLGQVHEVPEGWLIFVAEQEELYVRVQNGFRKVQLEARTPLGGGGSGGGGSGGGGSQDSTSDLIPAPPLSKVPLQQNFQDNQFHGKWYVVGQAGNIRLREDKDPIKMMATIYELKEDKSYDVTMVKFDDKKCMYDIWTFVPGSQPGEFTLGKIKSFPGHTSSLVRVVSTNYNQHAMVFFKFVFQNREEFYITLYGRTKELTSELKENFIRFSKSLGLPENHIVFPVPIDQCIDGGGSGGAPEQKLISEEDLGSHHHHHHHHHH
As to B5, the “EC50 [nM], 4-1BB bioassay (NFκB-luc2/4-1BB Jurkat luminescence), with HepG2 cells” value in test [5] was found to be 0.82 nM. It took 2980 pM to reach a half-maximal effect in test [1] (EC50). The molecule also yielded an EC50 in test [2] of 2830 pM. Moreover, the EC50 in test [3] came out at 100 pM. For the same molecule, in test [4], the Kd was 340 pM, the off-rate constant (koff) was 2.76e-05 s⁻¹ and the kon was determined as 81600 M⁻¹ s⁻¹.

B6: multimeric protein SEQ ID NO: 38 (designed binder)
chain: QDSTSDLIPAPPLSKVPLQQNFQDNQFHGKWYVVGQAGNIRLREDKDPIKMMATIYELKEDKSYDVTMVKFDDKKCMYDIWTFVPGSQPGEFTLGKIKSFPGHTSSLVRVVSTNYNQHAMVFFKFVFQNREEFYITLYGRTKELTSELKENFIRFSKSLGLPENHIVFPVPIDQCIDGGGGGSGGGGSGGGGSGVRLWATRQAMLGQVHEVPEGWLIFVAEQEELYVRVQNGFRKVQLEARTPLGGSGGAPEQKLISEEDLGSHHHHHHHHHH
notes: Trivalent; Self-assembled from its monomer polypeptides
Turning to B6, in test [1], the 50% effective concentration (EC50) was 4890 pM. The molecule further returned a 50% effective concentration (EC50) in test [2] of 5920 pM. The half-maximal effective concentration (EC50) in test [3] came out at 160 pM. Also, in test [4], the Kd turned out to be 250 pM, the dissociation rate constant (koff) was 2.22e-05 s⁻¹ and the kon turned out to be 89200 M⁻¹ s⁻¹.

B7: multimeric protein SEQ ID NO: 42 (designed binder)
chain: QDSTSDLIPAPPLSKVPLQQNFQDNQFHGKWYVVGQAGNIRLREDKDPIKMMATIYELKEDKSYDVTMVKFDDKKCMYDIWTFVPGSQPGEFTLGKIKSFPGHTSSLVRVVSTNYNQHAMVFFKFVFQNREEFYITLYGRTKELTSELKENFIRFSKSLGLPENHIVFPVPIDQCIDGAEAAAKEAAAKEAAAKAGVRLWATRQAMLGQVHEVPEGWLIFVAEQEELYVRVQNGFRKVQLEARTPLGGSGGAPEQKLISEEDLGSHHHHHHHHHH
In test [1], B7 yielded a concentration giving a half-maximal response (EC50) of 8500 pM. In test [2], this molecule had an EC50 of 6590 pM. Moreover, in test [3], the EC50 was 260 pM. Also, in test [4], the Kd came to 280 pM, the koff was 1.74e-05 s⁻¹ and the kon stood at 61300 M⁻¹ s⁻¹.

B8: multimeric protein SEQ ID NO: 41 (designed binder)
chain: QDSTSDLIPAPPLSKVPLQQNFQDNQFHGKWYVVGQAGNIRLREDKDPIKMMATIYELKEDKSYDVTMVKFDDKKCMYDIWTFVPGSQPGEFTLGKIKSFPGHTSSLVRVVSTNYNQHAMVFFKFVFQNREEFYITLYGRTKELTSELKENFIRFSKSLGLPENHIVFPVPIDQCIDGGSPTPTPTTPTPTPTGVRLWATRQAMLGQVHEVPEGWLIFVAEQEELYVRVQNGFRKVQLEARTPLGGSGGAPEQKLISEEDLGSHHHHHHHHHH
In test [1], B8 showed an EC50 of 7370 pM. The same molecule displayed an EC50 in test [2] of 5630 pM. Further, in test [3], the EC50 amounted to 190 pM. Moreover, in test [4], the Kd was determined as 310 pM, the koff amounted to 2.07e-05 s⁻¹ and the kon came out at 66200 M⁻¹ s⁻¹.
